Data on two molecules can be found in patent publication CN113683686A (INST PASTEUR SHANGHAI CAS, dated 2021).

Test [1] deals with SARS-CoV-2 S蛋白 (on MLV-based SARS-CoV-2 pseudovirus) (SARS-CoV-2, UniProt P0DTC2 14-1273). The test can be described thus: cell-based or functional assay.
Test [2] concerns the target 重组的SARS-CoV-2 RBD蛋白 (S蛋白320-550位残基, 组氨酸标签) (SARS-CoV-2, UniProt P0DTC2 320-550). Nature of the test: BLI (Octet RED96), His-tagged RBD on Ni-NTA sensor, antibody in solution.

For orientation: Kd means a measure of binding affinity in units of concentration.

B1: 单抗2H2 (anti-SARS-CoV-2 RBD mouse monoclonal antibody 2H2) (antibody, V domains shown)
VH: QVQLKQSGPSLVQPSQSLSITCTVSGFSLTSYGVHWVRQSPGKGLEWLGVMWRGGNTDYNAAFMSRLSITKDNSKSQVFFKMNSLQTDDTAIYYCAKNGGAHAMDFWGQGTSVTVSS
VL: NIVLTQSPASLAVSLGQRATISCRASESVDSYGNSFLHWYQQKPGQPPKLLIYLASNLESGVPARFSGSGSRTDFTLTIDPVEADDAATYYCQQNNEDPFTFGSGTKLEIK
On to B1, for which the “半数抑制浓度(IC50), SARS-CoV-2假病毒中和试验 (VeroE6, luciferase)” value in test [1] was 0.005 µg/mL. In test [2], this molecule registered a dissociation constant (Kd) of 7.5 nM.

B2: 单抗3C1 (anti-SARS-CoV-2 RBD mouse monoclonal antibody 3C1) (antibody, V domains shown)
VH: EVQLQESGPSLVKPSQTLSLTCSVTGDSITNGYWNWIRKFPGNKLEYMGYISYSGSTYYSPSLKSRISITRDTSKNQHYLQLNSVTSEDTATYYCASDYHGSKYYFDYWGQGTTLTVSS
VL: DIVMTQSHKFMSTSVGHRVSITCKASQDVGNDVAWYQQKPGQSPKLLIYWASTRHTGVPDRFTGSGSGTDFTLTISNVQSEDLADYFCQQYNRYPYTFGGGTKLEIK
As to B2, the “半数抑制浓度(IC50), SARS-CoV-2假病毒中和试验 (VeroE6, luciferase)” value in test [1] worked out at 1.91 µg/mL. This molecule also showed a Kd in test [2] of 13 nM.
